# Measured values published in IntAct's records for PubMed 35512704.
# B1: Mothers against decapentaplegic homolog 4 (Homo sapiens), Q13485 (parent)
# chain: MDNMSITNTPTSNDACLSIVHSLMCHRQGGESETFAKRAIESLVKKLKEKKDELDSLITAITTNGAHPSKCVTIQRTLDGRLQVAGRKGFPHVIYARLWRWPDLHKNELKHVKYCQYAFDLKCDSVCVNPYHYERVVSPGIDLSGLTLQSNAPSSMMVKDEYVHDFEGQPSLSTEGHSIQTIQHPPSNRASTETYSTPALLAPSESNATSTANFPNIPVASTSQPASILGGSHSEGLLQIASGPQPGQQQNGFTGQPATYHHNSTTTWTGSRTAPYTPNLPHHQNGHLQHHPPMPPHPGHYWPVHNELAFQPPISNHPAPEYWCSIAYFEMDVQVGETFKVPSSCPIVTVDGYVDPSGGDRFCLGQLSNVHRTEAIERARLHIGKGVQLECKGEGDVWVRCLSDHAVFVQSYYLDREAGRAPGDAVHKIYPSAYIKVFDLRQCHRQMQQQAATAQAAAAAQAAAVAGNIPGPGSVGGIAPAISLSAAAGIGVDDLRRLCILRMSFVKGWGPDYPRQSIKETPCWIEIHLHRALQLLDEVLHTMPIADPQPLD
# Variants of: B1
# Conditions: with maga6_human MAGEA6, P43360
row,Variant,effect of a mutation on the interaction
1,R361H,with no effect

# Variants of: B1
# Conditions: with mp2k7_human MAP2K7, O14733
row,Variant,effect of a mutation on the interaction
1,R361H,with no effect

# Variants of: B1
# Conditions: with m3k1_human MAP3K1, Q13233
row,Variant,effect of a mutation on the interaction
1,R361H,with no effect

# Variants of: B1
# Conditions: with mk10_human MAPK10, P53779
# mk10_human MAPK10, P53779, sequence (P53779 whole entry): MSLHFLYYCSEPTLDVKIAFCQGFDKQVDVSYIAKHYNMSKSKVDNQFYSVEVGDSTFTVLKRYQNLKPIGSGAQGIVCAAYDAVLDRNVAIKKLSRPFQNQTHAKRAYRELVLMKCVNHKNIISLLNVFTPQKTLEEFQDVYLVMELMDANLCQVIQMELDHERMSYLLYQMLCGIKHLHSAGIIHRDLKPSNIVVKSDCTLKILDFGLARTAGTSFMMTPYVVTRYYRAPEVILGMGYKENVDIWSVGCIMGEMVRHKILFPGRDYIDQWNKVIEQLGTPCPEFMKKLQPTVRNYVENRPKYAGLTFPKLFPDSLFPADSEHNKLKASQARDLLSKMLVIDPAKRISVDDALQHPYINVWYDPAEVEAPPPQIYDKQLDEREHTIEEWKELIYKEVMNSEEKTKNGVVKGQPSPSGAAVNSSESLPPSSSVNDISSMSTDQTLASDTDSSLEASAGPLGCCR
row,Variant,effect of a mutation on the interaction
1,R361H,with no effect

# Variants of: B1
# Conditions: with mk14_human MAPK14, Q16539
# mk14_human MAPK14, Q16539, sequence (Q16539 whole entry): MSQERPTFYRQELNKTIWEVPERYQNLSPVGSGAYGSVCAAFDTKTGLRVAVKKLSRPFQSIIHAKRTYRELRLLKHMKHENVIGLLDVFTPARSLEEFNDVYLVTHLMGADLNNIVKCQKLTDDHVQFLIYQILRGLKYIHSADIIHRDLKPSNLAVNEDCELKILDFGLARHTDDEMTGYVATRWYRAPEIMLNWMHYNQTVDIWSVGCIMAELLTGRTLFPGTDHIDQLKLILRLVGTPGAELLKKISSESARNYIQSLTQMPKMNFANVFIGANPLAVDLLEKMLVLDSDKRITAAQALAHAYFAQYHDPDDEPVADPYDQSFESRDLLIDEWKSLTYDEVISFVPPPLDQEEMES
row,Variant,effect of a mutation on the interaction
1,R361H,with no effect

# Variants of: B1
# Conditions: with mk03_human MAPK3, P27361
row,Variant,effect of a mutation on the interaction
1,R361H,with no effect

# Variants of: B1
# Conditions: with mk04_human MAPK4, P31152
row,Variant,effect of a mutation on the interaction
1,R361H,with no effect

# Variants of: B1
# Conditions: with mk06_human MAPK6, Q16659
row,Variant,effect of a mutation on the interaction
1,R361H,with no effect

# Variants of: B1
# Conditions: with mk07_human MAPK7, Q13164
row,Variant,effect of a mutation on the interaction
1,R361H,with no effect

# Variants of: B1
# Conditions: with mcl1_human MCL1, Q07820
row,Variant,effect of a mutation on the interaction
1,R361H,with no effect

# Variants of: B1
# Conditions: with myc_human MYC
row,Variant,effect of a mutation on the interaction
1,R361H,with no effect

# Variants of: B1
# Conditions: with nf1_human NF1, P21359
row,Variant,effect of a mutation on the interaction
1,R361H,with no effect

# Variants of: B1
# Conditions: with merl_human NF2, P35240
row,Variant,effect of a mutation on the interaction
1,R361H,with no effect

# Variants of: B1
# Conditions: with nfic_human NFIC
row,Variant,effect of a mutation on the interaction
1,R361H,with no effect

# Variants of: B1
# Conditions: with nsd3_human NSD3, Q9BZ95
row,Variant,effect of a mutation on the interaction
1,R361H,with no effect

# Variants of: B1
# Conditions: with pak3_human PAK3, O75914
row,Variant,effect of a mutation on the interaction
1,R361H,with no effect

# Variants of: B1
# Conditions: with pax5_human PAX5, Q02548
row,Variant,effect of a mutation on the interaction
1,R361H,with no effect

# Variants of: B1
# Conditions: with pax9_human PAX9, P55771
row,Variant,effect of a mutation on the interaction
1,R361H,with no effect

# Variants of: B1
# Conditions: with pcbp1_human PCBP1, Q15365
row,Variant,effect of a mutation on the interaction
1,R361H,with no effect

# Variants of: B1
# Conditions: with pgfra_human PDGFRA
row,Variant,effect of a mutation on the interaction
1,R361H,with no effect

# Variants of: B1
# Conditions: with pgfrb_human PDGFRB
row,Variant,effect of a mutation on the interaction
1,R361H,with no effect

# Variants of: B1
# Conditions: with pdk1_human PDK1, Q15118
# pdk1_human PDK1, Q15118, sequence (Q15118 whole entry, looked up): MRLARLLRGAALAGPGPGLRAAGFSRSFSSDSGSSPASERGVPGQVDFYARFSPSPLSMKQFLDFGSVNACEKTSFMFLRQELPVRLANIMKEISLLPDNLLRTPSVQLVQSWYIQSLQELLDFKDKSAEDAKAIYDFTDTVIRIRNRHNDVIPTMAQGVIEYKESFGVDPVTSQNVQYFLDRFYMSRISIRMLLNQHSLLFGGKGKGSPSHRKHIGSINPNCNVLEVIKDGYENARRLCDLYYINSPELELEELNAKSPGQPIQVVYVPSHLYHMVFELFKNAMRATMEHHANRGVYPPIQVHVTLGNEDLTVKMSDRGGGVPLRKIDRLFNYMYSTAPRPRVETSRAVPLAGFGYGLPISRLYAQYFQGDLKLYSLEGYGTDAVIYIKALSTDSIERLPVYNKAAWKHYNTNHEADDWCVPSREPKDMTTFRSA
row,Variant,effect of a mutation on the interaction
1,R361H,with no effect

# Variants of: B1
# Conditions: with PIK3C2B
row,Variant,effect of a mutation on the interaction
1,R361H,with no effect

# Variants of: B1
# Conditions: with pk3c3_human PIK3C3, Q8NEB9
row,Variant,effect of a mutation on the interaction
1,R361H,with no effect

# Variants of: B1
# Conditions: with pk3ca_human PIK3CA
row,Variant,effect of a mutation on the interaction
1,R361H,with no effect

# Variants of: B1
# Conditions: with pk3cg_human PIK3CG
row,Variant,effect of a mutation on the interaction
1,R361H,with no effect

# Variants of: B1
# Conditions: with p85a_human PIK3R1, P27986
row,Variant,effect of a mutation on the interaction
1,R361H,with no effect

# Variants of: B1
# Conditions: with p85b_human PIK3R2, O00459
# p85b_human PIK3R2, O00459, sequence (O00459 whole entry): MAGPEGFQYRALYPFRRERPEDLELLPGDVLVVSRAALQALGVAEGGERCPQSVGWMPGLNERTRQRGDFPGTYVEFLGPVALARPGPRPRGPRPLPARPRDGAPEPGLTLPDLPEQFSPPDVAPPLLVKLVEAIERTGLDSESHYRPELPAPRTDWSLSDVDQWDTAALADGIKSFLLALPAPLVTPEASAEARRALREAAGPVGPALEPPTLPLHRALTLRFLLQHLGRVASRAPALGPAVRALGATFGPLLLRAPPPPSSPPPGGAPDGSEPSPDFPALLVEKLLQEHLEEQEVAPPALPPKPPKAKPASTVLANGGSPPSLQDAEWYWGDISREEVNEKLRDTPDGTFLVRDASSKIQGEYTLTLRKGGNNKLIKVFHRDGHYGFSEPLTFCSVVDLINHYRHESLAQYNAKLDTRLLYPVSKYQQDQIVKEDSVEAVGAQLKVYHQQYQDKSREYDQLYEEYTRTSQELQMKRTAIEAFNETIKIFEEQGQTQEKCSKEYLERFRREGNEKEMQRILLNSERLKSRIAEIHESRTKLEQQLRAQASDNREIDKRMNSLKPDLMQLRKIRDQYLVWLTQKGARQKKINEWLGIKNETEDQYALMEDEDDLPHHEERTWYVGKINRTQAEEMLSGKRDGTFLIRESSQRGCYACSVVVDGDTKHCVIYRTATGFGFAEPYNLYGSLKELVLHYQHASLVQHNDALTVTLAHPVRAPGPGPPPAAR
row,Variant,effect of a mutation on the interaction
1,R361H,with no effect

# Variants of: B1
# Conditions: with dpod1_human POLD1, P28340
row,Variant,effect of a mutation on the interaction
1,R361H,with no effect

# Variants of: B1
# Conditions: with dpoe1_human POLE
row,Variant,effect of a mutation on the interaction
1,R361H,with no effect

# Variants of: B1
# Conditions: with lipa1_human PPFIA1, Q13136
row,Variant,effect of a mutation on the interaction
1,R361H,with no effect

# Variants of: B1
# Conditions: with 2aaa_human PPP2R1A
row,Variant,effect of a mutation on the interaction
1,R361H,with no effect

# Variants of: B1
# Conditions: with prdm1_human PRDM1, O75626
row,Variant,effect of a mutation on the interaction
1,R361H,with no effect

# Variants of: B1
# Conditions: with aapk2_human PRKAA2, P54646
row,Variant,effect of a mutation on the interaction
1,R361H,with no effect

# Variants of: B1
# Conditions: with prss8_human PRSS8, Q16651
# prss8_human PRSS8, Q16651, sequence (Q16651 whole entry, looked up): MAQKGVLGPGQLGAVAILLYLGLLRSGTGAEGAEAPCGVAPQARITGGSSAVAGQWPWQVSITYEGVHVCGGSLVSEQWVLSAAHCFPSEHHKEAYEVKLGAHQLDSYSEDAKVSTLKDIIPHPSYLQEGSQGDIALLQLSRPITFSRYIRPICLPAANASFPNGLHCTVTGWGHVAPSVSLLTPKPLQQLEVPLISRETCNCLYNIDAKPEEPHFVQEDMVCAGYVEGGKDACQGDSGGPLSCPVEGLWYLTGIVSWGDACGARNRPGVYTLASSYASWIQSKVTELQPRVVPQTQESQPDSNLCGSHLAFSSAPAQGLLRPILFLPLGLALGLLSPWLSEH
row,Variant,effect of a mutation on the interaction
1,R361H,with no effect

# Variants of: B1
# Conditions: with ptk6_human PTK6, Q13882
row,Variant,effect of a mutation on the interaction
1,R361H,with no effect

# Variants of: B1
# Conditions: with tf65_human RELA
row,Variant,effect of a mutation on the interaction
1,R361H,with no effect

# Variants of: B1
# Conditions: with rnf43_human RNF43, Q68DV7
row,Variant,effect of a mutation on the interaction
1,R361H,with no effect

# Variants of: B1
# Conditions: with ros1_human ROS1, P08922
row,Variant,effect of a mutation on the interaction
1,R361H,with no effect

# Variants of: B1
# Conditions: with rl5_human RPL5, P46777
row,Variant,effect of a mutation on the interaction
1,R361H,with no effect

# Variants of: B1
# Conditions: with runx1_human RUNX1, Q01196
row,Variant,effect of a mutation on the interaction
1,R361H,with no effect

# Variants of: B1
# Conditions: with ruvb1_human RUVBL1, Q9Y265
row,Variant,effect of a mutation on the interaction
1,R361H,with no effect

# Variants of: B1
# Conditions: with rxra_human RXRA
row,Variant,effect of a mutation on the interaction
1,R361H,with no effect

# Variants of: B1
# Conditions: with sdha_human SDHA
row,Variant,effect of a mutation on the interaction
1,R361H,with no effect

# Variants of: B1
# Conditions: with setb1_human SETDB1, Q15047
row,Variant,effect of a mutation on the interaction
1,R361H,with no effect

# Variants of: B1
# Conditions: with sf3b1_human SF3B1, O75533
row,Variant,effect of a mutation on the interaction
1,R361H,with no effect

# Variants of: B1
# Conditions: with skp2_human SKP2, Q13309
row,Variant,effect of a mutation on the interaction
1,R361H,with no effect

# Variants of: B1
# Conditions: with smad1_human SMAD1, Q15797
# smad1_human SMAD1, Q15797, sequence (Q15797 whole entry): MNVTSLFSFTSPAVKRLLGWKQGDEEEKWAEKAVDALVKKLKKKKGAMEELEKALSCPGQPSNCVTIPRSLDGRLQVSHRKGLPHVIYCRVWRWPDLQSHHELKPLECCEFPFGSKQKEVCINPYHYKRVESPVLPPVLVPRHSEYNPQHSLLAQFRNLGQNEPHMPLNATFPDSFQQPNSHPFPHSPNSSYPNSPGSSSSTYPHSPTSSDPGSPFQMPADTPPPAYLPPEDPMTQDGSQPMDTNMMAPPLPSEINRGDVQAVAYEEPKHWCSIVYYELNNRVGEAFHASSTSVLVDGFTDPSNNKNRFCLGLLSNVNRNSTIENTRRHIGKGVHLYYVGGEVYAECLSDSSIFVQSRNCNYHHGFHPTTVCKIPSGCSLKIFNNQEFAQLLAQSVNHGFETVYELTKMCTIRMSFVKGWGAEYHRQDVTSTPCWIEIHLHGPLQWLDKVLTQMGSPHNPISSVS
row,Variant,effect of a mutation on the interaction
1,R361H,with no effect

# Variants of: B1
# Conditions: with smad2_human SMAD2, Q15796
row,Variant,effect of a mutation on the interaction
1,R361H,with no effect

# Variants of: B1
# Conditions: with smad3_human SMAD3, P84022
# smad3_human SMAD3, P84022, sequence (P84022 whole entry, looked up): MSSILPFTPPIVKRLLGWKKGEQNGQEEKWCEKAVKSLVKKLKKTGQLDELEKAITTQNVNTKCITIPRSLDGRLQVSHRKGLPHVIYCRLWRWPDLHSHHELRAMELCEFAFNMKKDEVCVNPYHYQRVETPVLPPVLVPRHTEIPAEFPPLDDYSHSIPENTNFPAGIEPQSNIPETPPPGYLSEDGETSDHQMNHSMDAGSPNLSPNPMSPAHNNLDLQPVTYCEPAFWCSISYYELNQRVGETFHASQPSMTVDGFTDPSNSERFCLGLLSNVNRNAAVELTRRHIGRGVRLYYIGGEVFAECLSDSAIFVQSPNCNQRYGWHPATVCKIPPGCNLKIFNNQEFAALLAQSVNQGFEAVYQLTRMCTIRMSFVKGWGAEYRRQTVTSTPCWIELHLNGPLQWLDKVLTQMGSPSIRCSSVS
row,Variant,effect of a mutation on the interaction
1,R361H,with no effect

# Variants of: B1
# Conditions: with smca4_human SMARCA4, P51532
row,Variant,effect of a mutation on the interaction
1,R361H,with no effect

# Variants of: B1
# Conditions: with snf5_human SMARCB1, Q12824
row,Variant,effect of a mutation on the interaction
1,R361H,with no effect

# Variants of: B1
# Conditions: with smo_human SMO
row,Variant,effect of a mutation on the interaction
1,R361H,with no effect

# Variants of: B1
# Conditions: with sox10_human SOX10, P56693
row,Variant,effect of a mutation on the interaction
1,R361H,with no effect

# Variants of: B1
# Conditions: with sox2_human SOX2, P48431
row,Variant,effect of a mutation on the interaction
1,R361H,with no effect

# Variants of: B1
# Conditions: with sox3_human SOX3, P41225
row,Variant,effect of a mutation on the interaction
1,R361H,with no effect

# Variants of: B1
# Conditions: with sox4_human SOX4, Q06945
row,Variant,effect of a mutation on the interaction
1,R361H,with no effect

# Variants of: B1
# Conditions: with sox9_human SOX9, P48436
row,Variant,effect of a mutation on the interaction
1,R361H,with no effect

# Variants of: B1
# Conditions: with spop_human SPOP
row,Variant,effect of a mutation on the interaction
1,R361H,with no effect

# Variants of: B1
# Conditions: with src_human SRC
row,Variant,effect of a mutation on the interaction
1,R361H,with no effect

# Variants of: B1
# Conditions: with stat3_human STAT3, P40763
row,Variant,effect of a mutation on the interaction
1,R361H,with no effect

# Variants of: B1
# Conditions: with stk38_human STK38, Q15208
# stk38_human STK38, Q15208, sequence (Q15208 whole entry, looked up): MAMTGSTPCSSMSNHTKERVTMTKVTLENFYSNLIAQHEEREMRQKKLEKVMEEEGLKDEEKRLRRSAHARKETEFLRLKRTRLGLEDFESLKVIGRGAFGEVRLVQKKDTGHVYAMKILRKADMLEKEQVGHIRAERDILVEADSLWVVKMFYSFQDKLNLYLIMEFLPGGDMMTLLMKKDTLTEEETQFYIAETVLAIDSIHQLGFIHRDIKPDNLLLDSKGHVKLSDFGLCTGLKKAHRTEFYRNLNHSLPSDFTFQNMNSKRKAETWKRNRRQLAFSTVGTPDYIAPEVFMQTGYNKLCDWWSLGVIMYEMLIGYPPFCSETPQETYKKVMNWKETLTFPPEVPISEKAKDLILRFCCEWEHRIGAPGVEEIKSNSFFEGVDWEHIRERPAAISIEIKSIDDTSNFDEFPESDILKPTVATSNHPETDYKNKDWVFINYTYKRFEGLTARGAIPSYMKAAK
row,Variant,effect of a mutation on the interaction
1,R361H,with no effect

# Variants of: B1
# Conditions: with ksyk_human SYK
row,Variant,effect of a mutation on the interaction
1,R361H,with no effect

# Variants of: B1
# Conditions: with eloc_human ELOC
row,Variant,effect of a mutation on the interaction
1,R361H,with no effect

# Variants of: B1
# Conditions: with tfe2_human TCF3, P15923
row,Variant,effect of a mutation on the interaction
1,R361H,with no effect

# Variants of: B1
# Conditions: with tead1_human TEAD1, P28347
row,Variant,effect of a mutation on the interaction
1,R361H,with no effect

# Variants of: B1
# Conditions: with tead2_human TEAD2, Q15562
row,Variant,effect of a mutation on the interaction
1,R361H,with no effect

# Variants of: B1
# Conditions: with tead3_human TEAD3, Q99594
row,Variant,effect of a mutation on the interaction
1,R361H,with no effect

# Variants of: B1
# Conditions: with tgfr2_human TGFBR2, P37173
# tgfr2_human TGFBR2, P37173, sequence (P37173 whole entry): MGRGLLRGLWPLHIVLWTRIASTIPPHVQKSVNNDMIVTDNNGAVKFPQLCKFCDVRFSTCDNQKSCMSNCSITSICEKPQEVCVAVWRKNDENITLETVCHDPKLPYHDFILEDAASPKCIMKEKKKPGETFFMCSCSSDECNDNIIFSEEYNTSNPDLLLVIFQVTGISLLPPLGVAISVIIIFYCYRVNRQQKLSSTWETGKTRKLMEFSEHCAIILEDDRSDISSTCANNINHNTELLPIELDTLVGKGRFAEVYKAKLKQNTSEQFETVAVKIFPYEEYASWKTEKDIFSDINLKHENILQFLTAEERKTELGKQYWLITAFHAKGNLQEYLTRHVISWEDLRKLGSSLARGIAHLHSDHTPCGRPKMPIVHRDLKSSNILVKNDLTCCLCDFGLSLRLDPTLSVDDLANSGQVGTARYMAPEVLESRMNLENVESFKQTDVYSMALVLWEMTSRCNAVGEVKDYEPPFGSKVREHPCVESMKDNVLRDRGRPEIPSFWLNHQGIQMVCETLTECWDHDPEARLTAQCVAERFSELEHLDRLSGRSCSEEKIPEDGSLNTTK
row,Variant,effect of a mutation on the interaction
1,R361H,with no effect

# Variants of: B1
# Conditions: with tnr14_human TNFRSF14, Q92956
row,Variant,effect of a mutation on the interaction
1,R361H,with no effect

# Variants of: B1
# Conditions: with tpx2_human TPX2, Q9ULW0
# tpx2_human TPX2, Q9ULW0, sequence (Q9ULW0 whole entry): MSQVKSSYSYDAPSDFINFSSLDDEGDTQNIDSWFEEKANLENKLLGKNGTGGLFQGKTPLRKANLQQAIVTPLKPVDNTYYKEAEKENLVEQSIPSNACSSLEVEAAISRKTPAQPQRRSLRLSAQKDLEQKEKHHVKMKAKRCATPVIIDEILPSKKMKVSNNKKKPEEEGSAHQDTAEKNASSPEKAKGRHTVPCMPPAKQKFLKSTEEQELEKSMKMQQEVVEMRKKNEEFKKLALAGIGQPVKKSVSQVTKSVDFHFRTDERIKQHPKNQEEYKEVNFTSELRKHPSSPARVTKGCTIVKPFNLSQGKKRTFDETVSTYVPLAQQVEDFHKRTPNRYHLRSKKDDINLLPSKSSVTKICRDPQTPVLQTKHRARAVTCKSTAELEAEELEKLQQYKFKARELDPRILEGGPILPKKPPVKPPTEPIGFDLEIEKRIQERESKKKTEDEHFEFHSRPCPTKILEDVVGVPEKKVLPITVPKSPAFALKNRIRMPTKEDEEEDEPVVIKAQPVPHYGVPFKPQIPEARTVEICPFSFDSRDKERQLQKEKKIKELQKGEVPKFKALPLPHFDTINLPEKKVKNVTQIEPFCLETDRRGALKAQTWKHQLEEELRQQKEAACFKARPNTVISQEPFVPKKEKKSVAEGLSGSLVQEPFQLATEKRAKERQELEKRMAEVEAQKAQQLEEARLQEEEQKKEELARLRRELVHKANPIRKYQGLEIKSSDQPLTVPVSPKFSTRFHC
row,Variant,effect of a mutation on the interaction
1,R361H,with no effect

# Variants of: B1
# Conditions: with trrap_human TRRAP
row,Variant,effect of a mutation on the interaction
1,R361H,with no effect

# Variants of: B1
# Conditions: with tsc2_human TSC2, P49815
row,Variant,effect of a mutation on the interaction
1,R361H,with no effect

# Variants of: B1
# Conditions: with tshr_human TSHR
row,Variant,effect of a mutation on the interaction
1,R361H,with no effect

# Variants of: B1
# Conditions: with vhl_human VHL
row,Variant,effect of a mutation on the interaction
1,R361H,with no effect

# Variants of: B1
# Conditions: with wt1_human WT1, P19544
row,Variant,effect of a mutation on the interaction
1,R361H,with no effect

# Variants of: B1
# Conditions: with wwtr1_human WWTR1, Q9GZV5
row,Variant,effect of a mutation on the interaction
1,R361H,with no effect

# Variants of: B1
# Conditions: with xpo1_human XPO1, O14980
row,Variant,effect of a mutation on the interaction
1,R361H,with no effect

# Variants of: B1
# Conditions: with 1433b_human YWHAB
row,Variant,effect of a mutation on the interaction
1,R361H,with no effect

# Variants of: B1
# Conditions: with 1433e_human YWHAE
row,Variant,effect of a mutation on the interaction
1,R361H,with no effect

# Variants of: B1
# Conditions: with 1433z_human YWHAZ
row,Variant,effect of a mutation on the interaction
1,R361H,with no effect

# Variants of: B1
# Conditions: with smad3_human SMAD3, P84022
# Remark: another data set of the same source
row,Variant,effect of a mutation on the interaction
1,R361H,decreasing interaction strength
